Data taken from the nanobody polyreactivity screen of Harvey et al. (2022).

Experiment: yeast display, Sf9 membrane polyspecificity reagent, FACS + sequencing; frameworks hold sequencing errors
How it was run: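 Using colony PCR, genes from sorted yeast display clones were amplified, then sequenced on MiSeq at 2 × 250 and filtered by CDR length. The clones had been stained with 10% biotinylated, detergent-solubilized Sf9 membrane reagent for 1 hour at 4 °C and sorted by FACS into low and high (top ~1%) gates on anti-HA and streptavidin fluorescence. Polyreactivity labels come from the gate of origin.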

Sequence	polyreactivity (PSR sort gate)
QVQLVESGGGLVQAGGSLRLSCAASGFTFNRYVMGWYRQAPGKERELVAAISGGGARTYYADSVKGRFTISRDNAKNTVYLQMNSLKPEDTAVYYCNARYKSHSVSDYYYWGQGTQVTVSS	high polyreactivity
QVHLVESGGGIVQAGGSLRLSCAASGSIFNYYAMGWYRQAPGKETELVAAITWSGGRTYYADSVKGRFTISRDNAKNTVDLQMNSEKPEDTAVYYFATATVRFRVILFSPRMDDWGQGSQVTVSS	low polyreactivity
QVQLVESGGGLVQAGGSLRLSCAASGITFQRYAMGWYRQAPGKERELVAAISTNGGTTYYADSVKGRFTISRDTAKNTVYLQMNSLKPEDTAVYYCNAESGYVYYIRYNYWGQGTQVTVSS	high polyreactivity
QVQLVESGGGLVQAGGSLRLSCAASGIIFSYNAMGWYRQAPGKERELVAAITSGGITNYADSVKGRFTISRDNAKNTVYLQMNSLKPEDTAVYYCAAEVWRYYRRDYWGQGTQVTVSS	low polyreactivity
QVQLVESGGGLVQAGGSLRLSCAASGSTFHDNAMGWYIQAPGKERELVAAISSGGRTNYADSVKGRFTISRDNAKNTVYLQMNSLKPEDTAVYYCAASFRRWYFYDRHEYGYWGQGTQVTVSS	low polyreactivity
QVQLVESGGGLVEAGGSLRISCAASGFIFGPYAMGWYRQAPGKERELVAASWRGGSTYYADSVKGRFTISRDNAKNTVYLQMNSLKPEDTAVYYCAADVIYSLYYYWGQGTQVTVSS	low polyreactivity
QVQLVESGGGIVQAGGSLRLSCAASGSIFSFYAMGWYRQAPGKERELVAAIDVSGGSTYYADSVKGRFTISRDNAKNSVYLQMNSLKPEDTAVYYCAKDVRDQYDYWGQGTQVTVSS	low polyreactivity
QVQLVESGGGLVQAGGSLRLICAASGFILKYNAMGWYRQAPGKERELVAAISSNGGRTYYADSVKGRFTISRDNAMNTVYLQMNSLKPVDTAVYYCAAGRLQPVLGGYWGQGTQVTVSS	low polyreactivity
QVQLVESGGGLVQAGGSLRLSCAASGSTFAVNAMGWYRQAPGKERELVAVITGNGANTYYADSVKGRFTISRDNAKNTVYLQMNSLKPEDTAVYYCNARLFSQSHYYYWGQGTQVTVSS	high polyreactivity
QVQLVESVGGLVQAGGSIRLSCAASGRIIDVNAMGWYRQAPGKERELVAAIRSGGRTNYADSVKGRFTISRDNAKNTVYLQMNSLKPEDTAVYYCGAVVWSSLDDYWGQGTQVTVSS	high polyreactivity
QVQLVQSGGGLVQAGGSLRLSCAASGTTFNRNAMGWYRQAPGKEMELVDTITSAGSTYYADSVKGRFTISLDNAKNTVYLHMNSLKPEDTAVYYCAKGHQPGHVFHQEYGYYYWGQGTQGTVSS	low polyreactivity
QVQLVESGGGLVQAGGSLRLSCAASGLTFWFYAMGWYRQAPGKERELVASISRGGRTYYADSVKGRFTISRDNAKNTVYLQMNSLKPEDTAVYYCIADELYYEYKDYDYWGQGTQVTVSS	low polyreactivity
QVQLVESGGGLVQAGGSLRLSCAASGLSFYLYAMGWYRQAPGKERELVAAISSSGSSTYYADSVKGRFTISRDNAKNTVYLQMNSLKPEDTAVYYCNARGTRASRYDYWGQGTQVTVSS	high polyreactivity
QVQLVESGGGLVQAGGSLRLSCAASGLTFGGNARGWYRQAPGNERELVAPISSRGGSTYYADSVKGRFTISRDNAKNTVYLQMNSLKPEDTAVYYCAAGNRYGVRQLYQIVTRYYWGQGTQVTVSS	high polyreactivity
QVQLVESGGGLVQAGGSLRLSCAASGSTFDRYDMGWYRQAPGKERELVAAITRRGGSTYYADSVKGRFTISRDNAKNTVYLQMNSLKPEDTAVYYCNAKHFAYSVAHPYLRYGYDYWGQGTQVTVSS	low polyreactivity
QVQLVESGGGLVQAGGSLRLSCAASGLIFGYYAMGWYRQAPGKERELVAAITSSGASTYYADSVKGRFTISRDNAKNSVYLQMNSLKPEDTAVYYCNKYRYRSLGYDYWGQGTQVTVSS	high polyreactivity
QVQLVESGGGLVQAGGSLRLSCAASGRIFYFYAIGWYRQAPGKERELVASITSAGSTYYADSVKGRFTISRDNAKNTVYLQMNSLKPADTAVYYCARVRWGSRGGYIAYYGGGYWGQGTQVTVSS	high polyreactivity
QVQLVESGGGLVQAGGSLRLSCAASGRIFIVYVMGWYRQAPGKERELVAGITLSGGNTYYADSVKGRFTISRDNAKNTVYLQMNSLKPEDTAVYYCAAGWYGIEMDYWGQGTQVTVSS	high polyreactivity
QVQLVESGGGLVQAGGSLRLSCAASGRIFTQNAMGWYRQAPGKERELVAAINYSGGRTYYADSVKGRFTISRDNAKNTVYLQMNSLKPEDTAVYYCAAEWYTRFYISYGYWGQGTQVTVSS	high polyreactivity
QVQLVESGGGLVQAGGSLRLSCAASGSIFSVYAMGWYRQAPGKERELVAAISTRGGSTYYADSVKGRFTISRDNAKNTVYLQMNSLKPEDTAVYYCAKRWPQYTDYKPMYYWGLGTQVTVSS	high polyreactivity
QVQLVESGGGLVQAGGSLRLSCAASGRIFGVYAMGWYRQAPGKERELVAGINGGDSTYYADSVKGRFTISRDNAKNTVYLQMNSLKPEDTAVYYCAAEADESGSNYDYWGQGTQVTVSS	low polyreactivity
QVQLVESGGGKVQAVGSLRLSCAASGRTFYPYAMGWYRQAPGKERELVAVITWSTGNTYYADSVKGRFTISRDNAKNTVYLQMNSLKPEDTAVYYCAAAYYRYRGTIRYYYWGQGTQVTVSS	high polyreactivity

Sequence	polyreactivity (PSR sort gate)
QVQHVESGGGLVQAGGSLSLSCADSGFIFRYYAMGWYRQAPGKERELDAAISWSGGSTYYADSVKGRFTISRDNSKNTVYLQMNSLKPEDTAVYYCAADRYAILFYAEDYWGQGSQVTVSS	low polyreactivity
QVQLVESGGGLVQAGGSLRLSSASTGLIFRWYEMGRYRQPPGKETELVAAISRRGGTTNYADSVKGRFTISRDIAKITVYLQMNSLKPEDTAVYYCAADYQSVGVAEYEYWGQGTQVTVSS	high polyreactivity
QVQLVESGGGLVQAGGTLRLSCAASGSTFGVYAMGWYRQAPGKERELVAAIDNSGDDTYYADSVKGRFTISRDNAKNTVYLQMNSLKPEDTAVYYCAADFWDGRSTLNFWGQGTQVTVSS	high polyreactivity
QVQLVESGGGLVQAGGSLRLSCAASGRIFAGYAMGWYRQAPGKERELVATITYRGGNTYYADSVKGRFTISRDNAKNTVYLQMNSLKPEDTAVYYCAKGPYRYLYRAYPGGYWGQGTQVTVSS	high polyreactivity
QVQLVESGGGLVQAGGSLRLICAASGLTYFSYAMGWYRQAPGKQREFVAAITRRGGRTYYADSVKGRFTISRDNAKYTVYLQMNSLKPEDTAVYYCNAVPVLISVYRMEYWGQGTQVTVSS	high polyreactivity
QVQLVESAGGLVQAGGSLRLSCAASGLTFVPNAMGWYRQAPGKEREFVAAISNNGGRTYYADSVKGRFTISRDNAKNTVYLEMNSLKPEDTAVYYCAKFLSPGERHSYDYWGQGTQVTVSS	high polyreactivity
QVQLVESGGGLVQAGGSLRLSCAASGSIFDVYTMGWYRQAPGKDRELVAAINTGGGSTYYADSVKGRFTISRDNAKNTVYLQMNSLKPEDTAVYYCARSRYREWGQGTQVTVSS	low polyreactivity
QVQLGESGGGLVQAVGSLRLSCAASGITFGENAMGWSRQADGKERELVAAITSGGSTDYADSVKGRFTISRDNAKNSVYLQMYCLKPEDTAVYYWAAEAVAYYGSSYGYWGQGTQVTVSS	low polyreactivity
QVQLVESAGGVVQAGGSLRLSSAASGSIFDGNAMGWYRPAPGKERQLVAAISGGGRTYYADSVKGRFTISRDNAKNTVYLQMNSLKPEDTAVYYCAAAYTFYVYGSYKVTFDYWGQGTQVTVSS	low polyreactivity
QVQLVESGGGLVQAGGSHRLSCAASGSTFQYYAMGWYRQAPGKERELVAAISKSGGITYYADSVKGRFTISRDYAKYTVYLQMNILKPEDTAVYYCNAYSASGYDYWGQGSQVTVSS	high polyreactivity
QVQLVESGGGLVQAGGSLRLSCAASGSIFKYYAMGWYRQAPGKERELVAAISRSGSNTYYADSVKGRFTISRDNPKNTVYLQMNSLKPEDTAVYYCAAVKGPERPTSPYDYWGQGTQVTVSS	high polyreactivity
QVQLVESGGGLVQAGGSLRLSCAASGRIFYNYAMGWYRQAPGKERELVAAISGSGGSTYYADSVKGRFTISRDNAMNTVYLQMNSLKPEDTAVYYCSTSGPQYYSRNFDYWGQGTQVTVSS	low polyreactivity
QVQLVESGGGLVQAGGSLRLSCAASGRTFRVYAIGWYRQAPGKEREFVATISVRGGSTYYADSVKGRFTISRDNAKNTVYLQMNSLKPEDTAVYYCAADSYPYVYALYDSWGLGTQVTVSS	low polyreactivity
QVQLVESVGGVVQAGGSLRLSCAASGSIFRWNAMGWYRQARGKEWELVAVNTWRGGRTYYADSVKGRFTFSRDNAKKTVYLQMNSLNPEYTSFSYCAKGRLVTTLFGHYATCEYDSWGHGTQVTVSS	high polyreactivity
QVQLVESGGGLVQAGGSLRLSCAASGSSFVYNVMGWYRPAPGKERELVAAIRWRGGSTYADSVKGRFTISRDNAKNTVYLQMNSLKPEDTAVYYCAAGIPRYWYAGHYDYWGQGTQVTVSS	low polyreactivity
QVQLVESGGGLVQAVGSLRLSCAASGRILYWYAMGWYRQAPGKERELVAAINHGDTSTYYADSVKGRFTISRDNAKNTVYLQMNSLIPEDTAVYYCNVRSYVYSRWYQSTWGYYYWGQGTQVTVSS	high polyreactivity
QFQLVESGGGLVQAGGSLRLSCAASGRTFTSNAMGWYRQAPGKERELVAAIDDGGSTNYADSVKGRFTISRDNAKNTVYLQMNSLKPEDTAVYYCATGYWELRYDYWGQGTQVTVSS	low polyreactivity
QVQLVESGGCLVQAGGSLRLSCAASGSTFNKYAMGWYRQAPGKERELVAAIRSNGVRTYYADSVKGRFSISRDNAKNTVYLQMNSLKPEDTPVYYCNKRYTYRYDYWGQGTQVCVSS	high polyreactivity
QVQLVESGGGLVQAGGSLRLSCAASGSTFYGYTMGWYRQAPGKERELVAAITSGDSTYYADSVKGRFTISRDNAKNTVYLQINSLKPEDTAVYYCATDWDVEYYWTEYYYWGQGTQVTVSS	high polyreactivity
QVLLVDSGGGLVQAGGSLRLSCAASGRIFGPYTMARYIQAPGPERELVAAISWSGGSTYYADSVKGRFTISRDNAKNNVFLQMNSLKPEDSAVYYCNAYHPFPQYEGGSWGQGTQVTVSS	low polyreactivity
QVQLVESGGGLVQAGGSLRLSCASSGFTFDINAMGWYRQAPGKERELVAVITWNDGSTYYADSVKGRFTISRDNAKNTVYLQMNSLKPEDTAVYYCAAEYADSWSAFDWNYYYWGQGTQVTVSS	high polyreactivity
